One may read the Kd as the free concentration of one partner at which half of the binding sites on the other are occupied at equilibrium, for simple one-to-one binding. Usually EC50 stands for the concentration that produces a half-maximal response.

Numbering of substitutions follows the chain as printed.

B1: DOM13-93 (other)
chain: DIQMTQSPSSLSASVGDRVTITCRASQDIGNMLAWYQQKPGKAPKPLIYYASYLQSGVPSRFSGSGSGTDFTLTISSLQPEDFATYYCQQMRDYPVTFGQGTKVEIKR
notes: Anti-CEA dAb monomer
B2: DOM13-95 (other)
chain: B1 chain with T5S, M91L, R92G, D93A, Y94K, V96H
notes: Anti-CEA dAb monomer
B3: DOM13-58 (other)
chain: B1 chain with D28G, M32S, A34R, P46L, A51S, Y53H, M91I, D93T, Y94K, V96F
notes: Anti-CEA dAb monomer
B4: DOM13-65 (other)
chain: DIQMTQSPSSLSASVGDRVTITCRASQSIGMLLSWYQQKPGKAPKLLIYAVSRLQSGVPSRFSGSGSGTDFTLTISSLQPEDYATYYCQQMQRPPITFGQGTKVEIKR
notes: Anti-CEA dAb monomer
B5: DOM13-64 (other)
chain: B4 chain with M31T, S34N, V51S, Y83F, Q92N, P94V
notes: Anti-CEA dAb monomer
B6: DOM13-57 (other)
chain: DIQMTQSPSSLSASVGDRVTITCRASQGIMYHLRWYQQKPGKAPRLLIYHGSTLQSGVPARFSGSGSGTDFTLTISSLQPEDFATYYCQQTWNAPLTFGQGTKVEIKR
notes: Anti-CEA dAb monomer
B7: DOM11-30-2 (other)
chain: DIQMTQSPSSLSASVGDRVTITCRTSQKIENDLAWYQQKPGKAPKLLIYYTSILQSGVPSRFSGSGSGTDFTLTISSLQPEDFATYYCQQRRYVPATFGQGTKVEIKR
B8: DOM11-30-1 (other)
chain: B7 chain with T25A, Q27L, V94A
B9: DOM11-30-3 (other)
chain: B7 chain with T25A, K42N, Q55H
B10: DOM11-3-1 (other)
chain: DIQMTQSPSSLSASVGDRVTITCRASHNIDSRLSWYQQKPGKAPKLLIYRASVLQSGVPSRFRGSGSGTDFTLTISSLQPEDFATYYCQQWDMFPLSFGQGTKVEIKR
B11: DOM11-3-2 (other)
chain: B10 chain with H27Q, A51T, R63S, S97M
B12: DOM14-62 (other)
chain: DIQMTQSPSSLSASVGDRVTITCRASQNISYHLVWYQQKPGKAPKLLIYSSSNLQSGVPSRFSGSGSGTDFTLTISSLQPEDLATYYCQQLASWPHTLGQGTKVEIKR
notes: Anti-CD56 dAb monomer
B13: DOM14-23 (other)
chain: DIQMTQSPSSLSASVGDRVTITCRASQDIFPFLNWYQQKPGKAPELLIYRASILHSGVPSRFSGSGSGTDFTLTISSLQPEDFATYYCQQIARSPRTFGQGTKVEIKR
notes: Anti-CD56 dAb
B14: DOM14-63 (other)
chain: DIQMTQSPSSLSASVGDRVTITCRASQNISRGLRWYQQKPGKAPKLLIYHASKLQSGVPSRFSGSGSGTDFTLTISSLQPEDFATYYCQQYKVFPGTFGQGTKVEIKR
notes: Anti-CD56 dAb monomer
B15: DOM14-70 (other)
chain: DIQMTQSPSSLSASVGDRVTITCRASQEIGQWLNWYQQKPGKAPKLLIYWGSELQSGVPSRFSGSGSGTDFTLTISSLQPEDFATYYCQQVSRNPFTFGQGTKVEIKR
notes: Anti-CD56 dAb monomer
B16: DOM14-57 (other)
chain: B15 chain with E28Q, G30D, Q31D, W32Y, G51T, E53L, V91S, S92A, R93H, N94R
notes: Anti-CD56 dAb monomer
B17: DOM14-68 (other)
chain: DIQMTQSPSSLSASVGDRVTITCRASQEISGELTWYQQKPGKAPKLLIYFSSILQSGVPSRFSGSGSGTDFTLTISSLQPEDFATYYCQQRKLRPYTFGQGTKVEIKR
notes: Anti-CD56 dAb monomer
B18: DOM 11-3-1/DOM 12-45-2 (bispecific antibody, V domains shown)
V domain 1: B10 chain
V domain 2: DIQMTQSPSSLSASVGDRVTITCRASQDIGGRLRWYQQKPGKAPKLLIYHGSRLDSGVPSRFSGSRSGADFTLTISSLQPEDFATYYCQQQWYRPYTFGQGTKVEIKR
B19: DOM 11-3-20/DOM 12-45-2 (bispecific antibody, V domains shown)
V domain 1: B10 chain with M4T, H27Q, A51S, R63S, S97M
V domain 2: B18 V domain 2
B20: DOM 11-3-15/DOM 12-45-2 (bispecific antibody, V domains shown)
V domain 1: B10 chain with H27Q, R63S, S65T
V domain 2: B18 V domain 2
B21: DOM11-37 (other)
chain: DIQMTQSPSSLSAFVGDRVTITCRASQDIEGQLRWYQQKPGKAPKLLIYFGSLLQSGVPSRFSGSGSGTVYTLTISSLQPEDFATYYCQQSHLFPATFGQGTKVEIKR
notes: Anti-CD38 dAb monomer
B22: DOM11-32 (other)
chain: B17 chain with E28W, S30G, G31D, E32S, T34V, S51G, R91H, L93T, R94S, Y96S
notes: Anti-CD38 dAb monomer
B23: DOM11-39 (other)
chain: DIQMTQSPSSLSASVGDRVTITCRASQPIDGNLRWYQQKPGKAPRLLIYFTSILQSGVPSRFSGSGSGTDFTLTISSLQPEDFATYYCQQHRHWPATFGQGTKVEIKR
B24: DOM11-38 (other)
chain: DIQVTQSPSSLSASVGDRVTITCRASQEISSCLNWYQQKPGKAPKLLIYCTSVLQSGVPSRFSGSGSGTDFTLTISSLQPEDFATYYCQQRFGNPLTFGQGTKVEIKR
notes: Anti-CD38 dAb monomer
B25: DOM11-24 (other)
chain: B17 chain with S30H, G31D, E32Y, T34S, F50L, I53R, R91Y, K92H, L93K, R94G
notes: Anti-CD38 dAb monomer

For one assay, the target named is T1, NCA on H647 cells (UniProt P40199 35-320, limits assumed).
T1 construct: whole, on cells; Its identity is an inference
T1 sequence (looked up): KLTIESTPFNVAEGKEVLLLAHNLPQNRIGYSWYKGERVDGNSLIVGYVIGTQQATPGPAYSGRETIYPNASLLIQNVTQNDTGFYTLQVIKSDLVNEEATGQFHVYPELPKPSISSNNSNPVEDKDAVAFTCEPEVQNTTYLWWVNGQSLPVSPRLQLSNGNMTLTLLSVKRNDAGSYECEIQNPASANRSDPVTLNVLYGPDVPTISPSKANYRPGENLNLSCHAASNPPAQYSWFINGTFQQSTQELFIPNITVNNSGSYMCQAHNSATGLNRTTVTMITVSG
In words: FACS on H647 cells (CEA-/NCA+). How it is done:
(§1) All dAbs were analysed by FACS on antigen positive and negative cell lines using the following method.
(§2) The determination of cell binding by FACS was carried out as follows: cells were centrifuged at 250 g for 5 minutes and the growth medium was removed. The cells were resuspended in FACS incubation buffer at 4° C. at a density of 2×10⁶ cells/ml. The cells were blocked by incubating for 15 minutes at 4° C. in FACS incubation buffer. Fifty microliters of 2× stock of primary antibody (anti-CD38 FITC, anti-CD138 FITC or mIgG1 FITC conjugated isotype control (all BD Biosciences) was added; or dAb was added to cells in FACS incubation buffer and incubated for 30-60 minutes at 4° C. The cells were then washed once in FACS incubation buffer. One hundred microliters of secondary antibody (rabbit anti-Vk) was added to cells in FACS incubation buffer and incubated 30-60 minutes at 4° C. The cells were washed once in FACS incubation buffer. Then 100 ul of 1× tertiary antibody was added to the cells in FACS incubation buffer and incubated for 30-60 mins at 4° C. (for dAbs the tertiary antibody is anti-rabbit FITC (Sigma)). The cells were washed twice in FACS incubation buffer. The cell pellet was resuspend in 200 ul FACS incubation buffer+viable cell marker (BD Viaprobe). The cells were then analyzed by flow cytometry.
B1: the binding result is on record as “no binding”.
Still for that read-out and setting: the result for B2 reads “no binding”; that for B3, “no binding”; that for B4, “no binding”.
Still for that read-out and setting: with B5 the entry was “no binding”; with B6, “no binding”.

For another assay, the target named is T2, CD38 immobilised on Biacore CM5 chip (UniProt P28907 43-300, limits assumed).
T2 construct: also called DOM11
In words: Biacore, CD38 immobilised. How it is done: (§3) Anti-CD38, anti-CEA and anti-CD56 dAbs that were identified as FACS positive clones were in addition analysed by Biacore using the following procedure. The CM5 chip surface was activated by flushing 1:1 EDC/NHS (0.4M1-ethyl-3-(3-dimenthylaminopropyl)-carbodiimide in water; 0.1 M N-hydroxysuccinimide in water) at a flow rate of 5 uL/min for 10 minute contact time. CD38 was immobilised at 500 nM in Acetate buffer pH4 at 5 uL/min this was repeated until the RUs reached between 500 and 1000 (low density). CEA and CD56 were coupled in acetate buffer pH 4.5. Any excess reactive groups were deactivated by running 1M ethanolamine-HCl over the CM5 chip (again 5 uL/min for 7 mins). The affinities of the anti-CD38, anti-CEA and anti-CD56 dAbs were measured on the biacore as described above.
Affinity maturation libraries were created for the anti-CD38 dAbs DOM11-3 and DOM11-30 by error prone PCR. […] Initial screening was carried out by BIAcore (as described previously) and subsequently by FACS.
For the molecule B7, the Kd was in the range of 62 to 76 nM.
On the same count and under the same terms, the result for B8 reads 19 nM.
Same read-out and setting: with B9 the figure was 86 to 93 nM; with B10, 62 nM; with B11, 130 to 160 nM.

A further assay concerns the target T3, CD56 immobilised on Biacore CM5 chip (UniProt P13591 20-718, limits assumed).
T3 construct: also called DOM14
In words: Biacore, CD56 immobilised. Here is the method: as §3
In general terms: Surface plasmon resonance follows binding to a sensor surface in real time, without labels.
As to B12, the binding result is “no binding”.
B13 registered a Kd of 100 to 200 nM.
Same read-out and setting: with B14 the figure was 100 nM; with B15, 500 to 800 nM.
Take B16: the binding result was “no binding”.
Same read-out and setting: the result for B17 reads “no binding”.

A further assay deals with T4, CD38 and CD138 co-expressed on cells (CD38+/CD138+ double positive cells) (UniProt P28907 1-300; P18827 23-310).
T4 construct: whole, on cells; Two separate membrane proteins on the same cell, not a complex; also called RPMI8226; OPM2
In words: FACS cell binding titration on OPM2 cells (CD38+/CD138+), arithmetic mean fluorescence. The table prints no unit; the unit is taken from the x axis 'log conc in nm' (nanomolar). Here is the method: as §2
Anti-CD38 and anti-CD138 affinity matured dAbs were paired to create dual specific ligands by cloning an anti-CD38 dAb and an anti-CD138 dAb into a dual expression vector. To determine if the increased affinity of the monomers was reflected in increased binding affinity of the dual specific ligand, a range of the affinity matured anti-CD38 dAbs were paired with the anti-CD138 dAb DOM12-45, a range of affinity matured anti-CD138 dAbs were paired with anti-CD38 dAbs, and a range of affinity matured anti-CD38 dAbs and affinity matured anti-CD138 dAbs were paired. All dual specific ligands were expressed in E. coli and purified using protein L agarose followed by Resource S cation exchange chromatography when required. The binding affinity of the dual specific ligands was assessed by FACS as described previously. In this study, a range of concentrations was used to allow determination of EC50.
The molecule B18 came in with a 50% effective concentration (EC50) of 13.8 nM.
Still for that read-out and setting: the result for B19 reads 11.9 nM.
On the same count and under the same terms, the result for B20 reads 16.7 nM.

The target of another assay is T5, CD38 on cells (UniProt P28907 1-300).
T5 construct: whole, on cells; Endogenous CD38 on cell lines used in FACS or microscopy; also called DOM11; T10
In words: FACS on RPMI cells (CD38+/138+). Here is the method: as §1, §2
With B21, the binding result is recorded as “binds”.
Regarding B22, the binding result is “binds”.
On the same count and under the same terms, the result for B23 reads “binds”; that for B24, “binds”.
For B25, the binding result is listed as “binds”.

Source of the values: US20100021473A1 (DOMANTIS, published 2010).
